The target in one data set is T1, hTGase 6 (Homo sapiens, UniProt O95932).
T1 sequence (O95932 1-706): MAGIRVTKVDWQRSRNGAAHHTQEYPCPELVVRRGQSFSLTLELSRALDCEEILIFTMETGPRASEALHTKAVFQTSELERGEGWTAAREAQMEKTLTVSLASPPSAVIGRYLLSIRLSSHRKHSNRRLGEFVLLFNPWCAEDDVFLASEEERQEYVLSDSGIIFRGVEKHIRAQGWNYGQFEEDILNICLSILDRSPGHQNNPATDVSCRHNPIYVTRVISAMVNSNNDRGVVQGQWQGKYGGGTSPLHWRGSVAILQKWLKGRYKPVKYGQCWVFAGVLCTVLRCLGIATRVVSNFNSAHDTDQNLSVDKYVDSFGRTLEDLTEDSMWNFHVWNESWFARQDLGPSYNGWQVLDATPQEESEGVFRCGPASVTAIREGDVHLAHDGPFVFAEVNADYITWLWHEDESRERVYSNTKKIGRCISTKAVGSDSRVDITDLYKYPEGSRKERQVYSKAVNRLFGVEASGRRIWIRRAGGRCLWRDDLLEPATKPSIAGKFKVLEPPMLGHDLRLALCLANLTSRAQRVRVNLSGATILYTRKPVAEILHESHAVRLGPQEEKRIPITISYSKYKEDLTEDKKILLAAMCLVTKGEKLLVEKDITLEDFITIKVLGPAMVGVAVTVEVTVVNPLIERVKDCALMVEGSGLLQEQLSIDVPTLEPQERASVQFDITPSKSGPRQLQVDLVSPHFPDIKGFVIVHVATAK
Put plainly: FA-based assay, kinetic characterization of acyl donor DMC with R-I-Cad. Type of data set: biochemical. Set-up: purchased Zedira T021. Conditions: hTGase 6 5 µg/mL, R-I-Cad 0.74 µM, mean (SEM). As to the method:
(§1) For the kinetic characterization of DMC (Figure 1B) in the presence of a fixed concentration of R-I-Cad (0.74 µM), eight different concentrations of DMC (0.3–300 µM) were used (2–3 separate experiments, each performed in duplicate). The corresponding stock solutions of DMC and R-I-Cad were prepared in assay buffer A and DMSO, respectively. […] Values for Km, Ki and Vmax were calculated according to the equation of substrate inhibition (Equation (2)). (2) v=Vmax∗[S]/Km+[S]∗(1+[S]/Ki)

The next data set deals with T2, hTGase 2 (Homo sapiens, UniProt P21980).
T2 sequence (P21980 1-687): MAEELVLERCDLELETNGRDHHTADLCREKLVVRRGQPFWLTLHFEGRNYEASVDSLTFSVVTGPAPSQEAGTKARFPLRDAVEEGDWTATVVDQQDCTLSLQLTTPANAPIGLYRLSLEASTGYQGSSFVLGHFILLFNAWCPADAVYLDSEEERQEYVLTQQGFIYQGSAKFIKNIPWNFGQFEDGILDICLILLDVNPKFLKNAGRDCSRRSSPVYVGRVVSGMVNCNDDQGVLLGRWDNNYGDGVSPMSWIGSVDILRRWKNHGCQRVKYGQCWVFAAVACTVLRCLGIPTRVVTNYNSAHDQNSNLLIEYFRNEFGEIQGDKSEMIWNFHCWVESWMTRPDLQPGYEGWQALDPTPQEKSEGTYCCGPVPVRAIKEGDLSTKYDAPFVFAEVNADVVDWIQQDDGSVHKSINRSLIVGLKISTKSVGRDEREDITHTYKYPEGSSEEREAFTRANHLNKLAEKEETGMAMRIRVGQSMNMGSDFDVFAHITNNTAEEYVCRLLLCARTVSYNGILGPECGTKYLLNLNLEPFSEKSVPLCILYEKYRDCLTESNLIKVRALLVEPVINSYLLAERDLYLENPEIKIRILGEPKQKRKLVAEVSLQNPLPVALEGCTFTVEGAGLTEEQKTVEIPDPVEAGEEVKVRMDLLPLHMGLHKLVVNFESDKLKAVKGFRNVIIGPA
Also noted: purchased Zedira T022; method as in PMID 29664627. The note with it: hTGase 2 5 µg/mL, R-I-Cad 0.74 µM, mean (SEM), cited from earlier work.

For the next data set, the target named is T3, hTGase 1 (Homo sapiens, UniProt P22735).
T3 sequence (P22735 1-817): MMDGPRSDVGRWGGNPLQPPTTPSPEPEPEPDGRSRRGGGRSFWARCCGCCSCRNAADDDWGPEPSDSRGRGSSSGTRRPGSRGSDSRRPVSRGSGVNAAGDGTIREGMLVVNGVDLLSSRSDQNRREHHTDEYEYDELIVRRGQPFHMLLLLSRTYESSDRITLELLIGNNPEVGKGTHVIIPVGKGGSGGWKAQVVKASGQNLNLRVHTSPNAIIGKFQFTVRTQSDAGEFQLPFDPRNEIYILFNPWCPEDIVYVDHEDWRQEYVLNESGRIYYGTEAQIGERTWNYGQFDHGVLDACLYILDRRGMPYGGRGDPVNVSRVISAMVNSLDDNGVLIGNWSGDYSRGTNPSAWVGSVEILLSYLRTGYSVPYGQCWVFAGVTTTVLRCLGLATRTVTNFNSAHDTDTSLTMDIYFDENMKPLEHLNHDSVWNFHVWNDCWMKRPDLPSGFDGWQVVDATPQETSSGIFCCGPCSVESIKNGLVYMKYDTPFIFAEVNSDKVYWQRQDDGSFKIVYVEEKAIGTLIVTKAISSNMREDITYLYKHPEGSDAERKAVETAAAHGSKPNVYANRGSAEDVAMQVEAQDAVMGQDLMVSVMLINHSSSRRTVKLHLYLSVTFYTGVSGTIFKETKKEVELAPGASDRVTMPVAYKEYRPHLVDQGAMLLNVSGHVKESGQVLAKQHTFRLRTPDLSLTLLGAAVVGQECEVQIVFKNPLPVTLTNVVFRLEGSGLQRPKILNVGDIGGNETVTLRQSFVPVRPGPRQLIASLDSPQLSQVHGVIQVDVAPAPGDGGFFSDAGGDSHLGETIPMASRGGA
Put plainly: FA-based assay, kinetic characterization of acyl donor DMC with R-I-Cad. Conditions: hTGase 1 2 µg/mL, R-I-Cad 0.74 µM, pH 8.0, 30 °C, mean (SEM). Also noted: purchased Zedira T009. The format is biochemical. As for the experimental part: as §1

The mark [1] stands for this setting: read-out: Ki (substrate inhibition).

Our source for the Km, Ki and Vmax values is paper PMC9104438, “Application of a Fluorescence Anisotropy-Based Assay to Quantify Transglutaminase 2 Activity in Cell Lysates” (International Journal of Molecular Sciences, 2022).

Regarding N,N-dimethylated casein [DMC], the Km with hTGase 6 is 16.6 µM; with hTGase 2 it was 2.78 µM; with hTGase 1, 8.77 µM. The values for the Ki at hTGase 6 (setting [1]), on hTGase 2 (setting [1]) and at hTGase 1 (setting [1]) were 189 µM, 174 µM and 270 µM, respectively. Besides, the Vmax in the data set with hTGase 6 (pH 8.0, 30 °C) is on record as 27.1 (4.1) mA mL s^−1 mg^−1; with hTGase 2 (pH 8.0, 30 °C), 26.4 (2.8) mA mL s^−1 mg^−1; in the data set with hTGase 1 (DMC 0.3–300 µM, 5% DMSO, 500 µM DTT), 121 (13) mA mL s^−1 mg^−1.

The Km is the concentration of substrate that gives half-maximal velocity.
